Patent US20260152568A1 (NECTIN THERAPEUTICS, published 2026)
Numbering of substitutions follows the chain as printed. Names and notes keep the numbering of the source.

Legend:
[1] = target: T1, PVR conjugated to Histidine tag (PVR-HIS, Sino Cat. no. 10109-H08H) (Homo sapiens (Human), UniProt P15151 21-343); assay: SPR (Biacore T200), antibody captured on Protein A chip, PVR-HIS as analyte, 1:1 binding
T1 construct: Bought reagent; also called PVR-HIS tagged
T1 sequence: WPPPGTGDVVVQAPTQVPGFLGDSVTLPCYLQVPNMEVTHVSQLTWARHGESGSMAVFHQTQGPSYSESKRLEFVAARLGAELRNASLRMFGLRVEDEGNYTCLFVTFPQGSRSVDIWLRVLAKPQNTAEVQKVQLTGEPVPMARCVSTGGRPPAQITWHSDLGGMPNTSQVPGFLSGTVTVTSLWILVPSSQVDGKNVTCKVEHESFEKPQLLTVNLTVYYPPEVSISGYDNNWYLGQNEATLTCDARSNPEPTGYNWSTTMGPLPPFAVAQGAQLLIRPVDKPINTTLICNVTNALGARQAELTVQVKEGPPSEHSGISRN
Protocol: (§1) Seven chimeric variants were generated by introducing a point mutation at residue asparagine N56. […] Binding was tested for the analyte PVR conjugated to Histidine tag (PVR-HIS, Sino Cat. no. 10109-H08H). Dilution range: Five point two-fold dilution from 50 nM to 3.125 nM. Conditions used: Instrument: Biacore T200 (serial no. 1909913) running Biacore T200 Evaluation Software V2.0.1. Running buffer: HBS-P+, 300 mM NaCl, 1 mg/ml BSA. Flow rate: […]. Association: 350 s, Dissociation: 800 s. Regeneration: 10 mM glycine pH 1.5. Analysis: 1:1 binding.

[2] = target: T1, PVR conjugated to Histidine tag …; assay: SPR (Biacore T200); KD divided by the KD of VH0/Vκ0 WT
Protocol: FIGS. 1A-1B. Affinity and competition assays of N56 substitutions. FIG. 1A. […] Biacore assay showing relative and absolute affinity of the N56 substitutions (hIgG4 variants) to PVR-HIS tagged (Sino Cat. no. 10109-H08H). Affinity shift of >25% were considered significant.
as §1

[3] = target: T2, chlorocebus (African green monkey) PVR expressed on Vero cells (chlorocebus (African green monkey), UniProt P32506 21-417); assay: flow cytometry, 10 ug/ml antibody on Vero cells; MFI divided by the MFI of K0
T2 construct: whole, on cells; also called chlorocebus PVR
T2 sequence (looked up): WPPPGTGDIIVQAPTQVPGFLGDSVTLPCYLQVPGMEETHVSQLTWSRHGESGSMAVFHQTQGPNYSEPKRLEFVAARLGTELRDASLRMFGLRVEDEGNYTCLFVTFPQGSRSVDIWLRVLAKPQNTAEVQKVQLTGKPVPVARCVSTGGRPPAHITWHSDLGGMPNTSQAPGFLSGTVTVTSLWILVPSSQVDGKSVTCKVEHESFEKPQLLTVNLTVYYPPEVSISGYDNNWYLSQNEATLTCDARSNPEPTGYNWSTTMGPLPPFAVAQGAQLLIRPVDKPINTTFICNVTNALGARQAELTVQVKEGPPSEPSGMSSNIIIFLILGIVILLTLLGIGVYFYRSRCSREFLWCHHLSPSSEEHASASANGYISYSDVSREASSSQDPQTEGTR
Protocol: FIGS. 2A-2B. […] To assess maximal binding, saturating dose (10 ug/ml) of the N56 variant monoclonal antibodies (shown at the X axis) were used to stain PVR-expressing cells, and mean fluorescence intensity (MFI) values were determined by FACS analysis. […] (FIG. 2A) NCI-H1975 (human lung) cells and (FIG. 2B) Vero (African green monkey kidney) cells. Affinity shifts of >25% were considered significant.
The binding of the N56 substitution variant antibodies to cell bound PVR of human (protein id: Q92692) and chlorocebus (African green monkey, protein id: UniProtKB—P32506) was examined. FIG. 2A depicts the relative binding of all variants, which were added in saturating concentration (10 ug/ml), to NCI-H1975 cells expressing human PVR. FIG. 2B depicts the relative binding of all variants, which were added in saturating concentration (10 ug/ml), to Vero cells expressing chlorocebus PVR. […] Cell binding of the Abs was analyzed by FACS.

[4] = target: T3, human PVR (SPR of the humanized variants, Example 5) (human, UniProt P15151 21-343); assay: SPR; relative to N56E VH0/Vκ0
T3 sequence: T1 sequence

[5] = target: human poliovirus receptor (PVR, CD155) expressed on cells (human) (UniProt P15151); assay: flow cytometry, binding to PVR-expressing HEK 293 cells
[6] = target: T3, human PVR (SPR of the humanized …); assay: SPR

B1: VH0/Vκ0 Ala56 (antibody, V domains shown)
VH: QVQLQQSGAELMKPGASVKISCKATGYTFSNYWIEWIKQRPGHGLEWIGEIFPGSGRINFNEKFKGKATFTADTSSDTTYMQLSSLTSADSAVYYCARTKIYGNSFDYWGQGTTLTVSP
VL: DIMMTQSHKFMSTSVGDRVNITCKASQDVGTAVVWYQQKPGQSPKLLIYWASSRHAGVPDRFTGSGSGTDFTLTISNVQSEDLSDYFCQQYSRYPLTFGAGTKLELK
notes: chimeric 5B9 N56 substitution variant; also called N56A
For B1, the Kd [1] was 4.57 nM, the koff [1] was 0.000701 s⁻¹ and the kon [1] was 154000 M⁻¹ s⁻¹. For the same binder, the “Relative KD” value [2] was 0.89 and the “Fold change MFI” value [3] was 1.2.

B2: chimeric 5B9 N56E variant, IgG4(S241P) N56E_VH0/VK0 (antibody, name in Kabat numbering, V domains shown)
VH: B1 VH
VL: B1 VL with A56E
notes: Human IgG4 (S241P) constant region; also called chimeric N56E mutated parental antibody
B2 was tested, and the “Relative KD” value [4] was 1, the EC50 [5] was 0.79 nM and the Kd [1] was 3.55 nM. For the same binder, the koff [1] was 0.000653 s⁻¹, the kon [1] was 184000 M⁻¹ s⁻¹ and the Kd [6] was 5.54 nM. The “Relative KD” value [2] was 0.69 and the “Fold change MFI” value [3] was 1.31.

B3: chimeric 5B9 N56D variant, IgG4 (S241P) (antibody, name in Kabat numbering, V domains shown)
VH: B1 VH
VL: B1 VL with A56D
notes: Human IgG4 (S241P) constant region
With B3 the Kd [1] was 3.27 nM, the koff [1] was 0.000637 s⁻¹ and the kon [1] was 195000 M⁻¹ s⁻¹. For the same binder, the “Relative KD” value [2] was 0.64 and the “Fold change MFI” value [3] was 1.27.

B4: VH0/Vκ0 Ser56 (antibody, V domains shown)
VH: B1 VH
VL: B1 VL with A56S
notes: chimeric 5B9 N56 substitution variant; also called N56S
Binder B4 has a Kd [1] of 4.61 nM, a koff [1] of 0.000701 s⁻¹ and a kon [1] of 152000 M⁻¹ s⁻¹. For the same binder, the “Relative KD” value [2] was 1.05 and the “Fold change MFI” value [3] was 0.73.

B5: VH0/Vκ0 Thr56 (antibody, V domains shown)
VH: B1 VH
VL: B1 VL with A56T
notes: chimeric 5B9 N56 substitution variant; also called N56T
Work on B5 yielded a Kd [1] of 4.4 nM, a koff [1] of 0.000688 s⁻¹ and a kon [1] of 156000 M⁻¹ s⁻¹. For the same binder, the “Relative KD” value [2] was 0.86 and the “Fold change MFI” value [3] was 1.19.
